Data as given in patent US20180064809A1 (University of Texas, published 2018).

T1: Human DC-HIL (human, UniProt Q14956 23-572)
T1 sequence (looked up): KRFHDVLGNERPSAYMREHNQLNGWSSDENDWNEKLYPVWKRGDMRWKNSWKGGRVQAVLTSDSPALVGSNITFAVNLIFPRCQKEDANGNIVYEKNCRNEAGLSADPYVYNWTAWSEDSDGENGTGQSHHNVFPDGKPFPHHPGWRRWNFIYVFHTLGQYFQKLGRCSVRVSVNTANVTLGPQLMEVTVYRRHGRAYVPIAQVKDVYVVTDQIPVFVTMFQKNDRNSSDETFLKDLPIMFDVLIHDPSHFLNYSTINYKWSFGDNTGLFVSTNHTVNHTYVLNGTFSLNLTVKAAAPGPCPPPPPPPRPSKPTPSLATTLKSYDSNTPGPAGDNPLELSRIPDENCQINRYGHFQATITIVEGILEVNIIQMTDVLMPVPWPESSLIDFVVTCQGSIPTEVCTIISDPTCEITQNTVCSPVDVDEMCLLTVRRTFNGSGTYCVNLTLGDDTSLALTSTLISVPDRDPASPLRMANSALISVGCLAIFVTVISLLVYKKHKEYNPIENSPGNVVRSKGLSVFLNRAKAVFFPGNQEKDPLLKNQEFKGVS


How the values were obtained:
[1] = biological target: syndecan-4 (SD-4) on mouse T cells (mouse) (UniProt O35988); test: cell-based or functional assay
Sequence of syndecan-4 (SD-4) on mouse T cells (mouse) (O35988 24-198): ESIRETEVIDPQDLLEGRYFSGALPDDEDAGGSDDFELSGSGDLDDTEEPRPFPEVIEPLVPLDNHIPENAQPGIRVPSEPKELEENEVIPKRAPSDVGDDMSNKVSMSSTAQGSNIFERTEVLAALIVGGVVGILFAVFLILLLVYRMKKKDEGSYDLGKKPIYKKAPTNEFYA

[2] = biological target: T1, Human DC-HIL; test: cell-based or functional assay

| restoration of pmel-1 T cell activation suppressed by melanoma-MDSC [1] [%] | T cell IFN-γ response against control IgG-treated cultures, kidney cancer [2] | Molecule |
| --- | --- | --- |
| < 90 |  | DC-HIL-Fc fusion protein (from UniProt Q99P91 23-502) |
|  | 20 fold greater than control IgG-treated cultures | 3D5 mouse anti-human DC-HIL mAb (antibody, IgG1, V domains shown) VH: QVQLQQSGAELVKPGTSVKLSCKASGYTFTNYYMYWVKQRPGQGLEWIGEINTRNGGNRFNEKFKNKAILTVDKSSNTAYIQVSSLTSEDSAVYYCTTGFAYWGQGTLVTVSA VL: QIVLTQSPAIMSASLGEEITLTCSASSSISYMHWYQQKSGTSPKLLIYTTSTLSSGVPSRFSGSGSGTFYSLTISSVEAEDAADYYCHQSSSYPYTFGGGTKLEIKR |
